Experimental data as given in patent publication US20160237160A1 (Bayer, published 2016).
Values belong to the binder of their own block, whether it stands above or below them.

What was measured:
[1] = target: T1, TPP-2305 (hTNFRSF12Aaa28-80) (Human, UniProt Q9NP84 28-80); experiment: SPR (Biacore T100), IgG captured, TPP-2305 injected, 1:1 model
T1 construct: monomeric extracellular domain, bought; also called purified recombinant human TWEAKR protein; soluble monomeric TWEAKR

[2] = target: T2, TPP-1778 (PIG-TNFRSF12Aaa28-80-hIgG1-Fc) (pig); experiment: SPR, TWEAKR-Fc immobilized, IgG injected, bivalent analyte model (avidity mode);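 further: kd derived as the ratio of fitted dissociation to association rate constants, with sensorgrams corrected against a reference flow cell and a buffer blank before fitting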
T2 construct: bivalent antigen; also called pig TWEAKR Fc
Experimental: (§1) Sensorgrams were generated after in-line reference cell correction followed by buffer sample subtraction. The dissociation equilibrium constant (KD) was calculated based on the ratio of association (kₒₙ₁) and dissociation rated (koff1) constants, obtained by fitting sensorgrams with a bivalent analyte model using Biavaluation Software (version 4.0).

[3] = target: T3, TPP-601 (MURINE-TNFRSF12Aaa28-80-hIgG1-Fc) (murine); experiment: as above
T3 construct: dimeric; also called murine TWEAKR Fc
Experimental: as §1

[4] = target: T4, TPP-1846 (MAC-TNFRSF12Aaa28-80-hIgG1-Fc) (macaca fascicularis); experiment: as above
T4 construct: bivalent antigen; also called mac fasc TWEAKR Fc
Experimental: as §1

[5] = target: T5, TPP-599 (HUMAN-TNFRSF12Aaa28-80-hIgG1-Fc) (human); experiment: as above
T5 construct: dimeric; also called human TWEAKR Fc; TWEAKR-Fc
Experimental: as §1

[6] = target: T6, TPP-1777 (DOG-TNFRSF12Aaa28-80-hIgG1-Fc) (dog); experiment: as above
T6 construct: bivalent antigen; also called dog TWEAKR Fc
Experimental: as §1

[7] = target: T7, TPP-1779 (RAT-TNFRSF12Aaa28-80-hIgG1-Fc) (rat); experiment: as above
T7 construct: bivalent antigen; also called rat TWEAKR Fc
Experimental: as §1

[8] = target: T8, TPP-2614 (TweakR-ECD-34-68-hIgGFc-His-D47A) (human); experiment: ELISA, IgG coated 1 ug/ml, TWEAKR variant 250 ng/ml, anti-HIS HRP (FIG. 6C)
T8 construct: also called D47A TWEAKR mutein
Experimental: Antibodies were coated (1 μg/ml), TWEAKR variant was added at 250 ng/ml, detection via anti-HIS HRP. […] Antibodies were coated (1 μg/ml), TWEAKR variant was added 250 ng/ml, detection via anti-HIS HRP.

[9] = target: T9, TWEAKR (TNFRSF12A, FN14), human, on tumor cell lines (human, UniProt Q9NP84 28-129); experiment: cell-based or functional assay
[10] = target: T10, TPP-1984 (hTNFRSF12Aaa28-68-CT-His) (human); experiment: ELISA, TPP-1984 coated at 1 µg/ml, biotinylated IgG at 0.08 µg/ml (open bar) and 0.3 µg/ml (filled bar), Streptavidin-HRP, Amplex Red
T10 construct: monomeric ectodomain with HIS6 tag; also called TWEAKR(28-68)-HIS; C-terminally truncated TWEAKR ectodomain
T10 chain: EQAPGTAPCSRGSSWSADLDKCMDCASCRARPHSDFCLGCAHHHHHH
Experimental: (§2) Detection was done with Streptavidin-HRP and Amplex-Red substrate.
(§3) To analyze for binding, 1 μg/ml of the respective dimeric TWEAKR-Fc construct were coated and, 0.3 μg/ml and 0.08 μg/ml of biotinylated IgG were used as soluble binding partner. Detection was done with Streptavidin-HRP and Amplex-Red substrate.

[11] = target: T9, TWEAKR (TNFRSF12A, FN14), human, on …; experiment: cell-based or functional assay; remark: listed apart in the source
[12] = target: T11, TPP-2203 (TWEAKR-ECD-34-68-hIgGFc-His) (human); experiment: ELISA, TPP-2203 coated at 1 µg/ml, biotinylated IgG at 0.08 µg/ml (open bar) and 0.3 µg/ml (filled bar), Streptavidin-HRP, Amplex Red
T11 construct: dimeric; also called TWEAKR(34-68)-Fc fusion protein; truncated ectodomain 34-68
Experimental: as §2, §3

[13] = target: T12, TPP-2202 (TWEAKR-ECD-28-80-hIgGFc-His) (human); experiment: ELISA, TPP-2202 coated at 1 µg/ml, biotinylated IgG at 0.08 µg/ml (open bar) and 0.3 µg/ml (filled bar), Streptavidin-HRP, Amplex Red
T12 construct: dimeric; also called TWEAKR-Fc fusion protein; full ectodomain 28-80
Experimental: as §2, §3

[14] = target: TPP-1988 (hTNFRSF12Aaa28-80-M50A-hIgG1-Fc) (human); experiment: ELISA, TWEAKR-Fc coated 62 ng/ml, biotin-IgG titrated; + means IC50 1 to 150 pM;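 further: biotinylated IgG binding to immobilized TWEAKR-Fc muteins, detected with Streptavidin-HRP and Amplex Red, IC50 derived from fitted dose-response curves of twofold serial dilutions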
Experimental: (§4) To collect dose-response data, the different TWEAKR-Fc muteins were coated with a low concentration (62 ng/ml) in a 384-well Maxisorb ELISA plate and a serial 2fold dilution of biotinylated IgG starting with a concentration of 100 nM was used as soluble binding partner. Detection was done with Streptavidin-HRP and Amplex Red.
(§5) The dose-response data were fitted and IC50s determined.

[15] = target: TPP-1989 (hTNFRSF12Aaa28-80-H60K-hIgG1-Fc) (human); experiment: as above
Experimental: as §4, §5

[16] = target: TPP-1987 (hTNFRSF12Aaa28-80-S40R-hIgG1-Fc) (human); experiment: as above
Experimental: as §4, §5

[17] = target: T5, TPP-599 …; experiment: as above
Experimental: as §4, §5

[18] = target: TPP-1986 (hTNFRSF12Aaa28-80-T33Q-hIgG1-Fc) (human); experiment: as above
Experimental: as §4, §5

[19] = target: TPP-1990 (hTNFRSF12Aaa28-80-L65Q-hIgG1-Fc) (human); experiment: as above
Experimental: as §4, §5

[20] = target: TPP-2683 (hTNFRSF12Aaa28-80-R56P-hIgG1-Fc) (human); experiment: as above
Experimental: as §4, §5

[21] = target: T9, TWEAKR (TNFRSF12A, FN14), human, on …; experiment: FACS, A375 cells, 10 ug/ml
Experimental: (§6) To determine the binding characteristics of the anti-TWEAKR antibodies on mouse and human cancer cell lines, binding was tested by flow cytometry to a panel of cell lines. […] Cells were suspended at approximately 10⁵ cells/well in FACS buffer (PBS without Ca/Mg, containing 3% FCS, Biochrom). Cells were centrifuged (250 g, 5 min, 4° C.) and supernatant discarded. Cells were resuspended in dilutions of the antibodies of interest (10 μg/ml in 80 μl if not indicated otherwise) in FACS buffer, and incubated on ice for 1 h. […] After incubation for 1 h on ice cells were again washed with cold FACS buffer, resuspended in 1000 FACS buffer and analyzed by flow cytometry using a FACS-Array (BD Biosciences). Results are calculated as Geo Mean of fluorescence detected by the antibody of interest subtracted by background fluorescence as measured by detection with the secondary antibody alone. Values are scored according to the following system: Geo Mean−Geo Mean of secondary antibody alone >10: +, >100: ++, >1000: +++, 10000: ++++, close to category border in ( ).

[22] = target: T9, TWEAKR (TNFRSF12A, FN14), human, on …; experiment: FACS, 786-O cells, 10 ug/ml
[23] = target: T9, TWEAKR (TNFRSF12A, FN14), human, on …; experiment: FACS, NCI-H322 cells, 10 ug/ml
Experimental: as §6

[24] = target: T9, TWEAKR (TNFRSF12A, FN14), human, on …; experiment: FACS, HT29 cells, 10 ug/ml
Experimental: as §6

[25] = target: T9, TWEAKR (TNFRSF12A, FN14), human, on …; experiment: FACS, SKOV-3 cells, 10 ug/ml
[26] = target: T9, TWEAKR (TNFRSF12A, FN14), human, on …; experiment: cell-based or functional assay; remark: listed apart in the source
[27] = target: T9, TWEAKR (TNFRSF12A, FN14), human, on …; experiment: FACS, WiDr cells, 10 ug/ml

Kd [1]: 28.9 nM
koff [1]: 0.086 s⁻¹
kon [1]: 3e+06 M⁻¹ s⁻¹
Kd [2]: 22.4 nM
Kd [3]: 4.2 nM
Kd [4]: 16.8 nM
Kd [5]: 10.3 nM
Kd [6]: 24.5 nM
Kd [7]: 21.2 nM
% binding normalized by wt binding signal [8]: < 5%
B1: TPP-2077 (antibody, human IgG1, kappa)
heavy: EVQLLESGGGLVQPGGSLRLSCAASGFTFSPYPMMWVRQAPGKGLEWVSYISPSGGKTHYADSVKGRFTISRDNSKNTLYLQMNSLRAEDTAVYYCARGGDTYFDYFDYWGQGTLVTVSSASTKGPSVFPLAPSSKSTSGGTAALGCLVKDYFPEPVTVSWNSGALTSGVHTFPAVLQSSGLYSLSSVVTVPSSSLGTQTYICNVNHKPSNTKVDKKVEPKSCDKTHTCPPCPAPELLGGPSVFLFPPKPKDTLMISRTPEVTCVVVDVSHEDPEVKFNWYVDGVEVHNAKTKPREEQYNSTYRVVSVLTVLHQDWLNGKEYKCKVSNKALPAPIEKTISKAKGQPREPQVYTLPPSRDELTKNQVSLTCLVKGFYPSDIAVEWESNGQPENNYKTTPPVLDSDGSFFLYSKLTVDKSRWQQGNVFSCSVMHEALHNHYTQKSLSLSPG
light: DIQMTQSPATLSASVGDRVTITCRASQSISSYLNWYQQKPGKAPKLLIYAASSLQSGVPSRFSGSGSGTDFTLTISSLQPEDFATYYCQQSYSSPGITFGPGTKVEIKRTVAAPSVFIFPPSDEQLKSGTASVVCLLNNFYPREAKVQWKVDNALQSGNSQESVTEQDSKDSTYSLSSTLTLSKADYEKHKLYACEVTHQGLSSPVTKSFNRGEC
notes: Human IgG1

Fold induction of Caspase 3/7, HT-29 cells, 100 ug/ml [9]: 1.81 fold
binding result [10]: binds
IL-8 release from A375 cells at 100 ug/ml, % of the activation by 300 ng/ml TWEAK ligand [11]: 93%
Kd [1]: 0.8 nM
koff [1]: 0.0324 s⁻¹
kon [1]: 3.84e+07 M⁻¹ s⁻¹
binding result [12]: binds
binding result [13]: binds
binding result [14]: binds
binding result [15]: binds
binding result [16]: binds
binding result [17]: binds
binding result [18]: binds
binding result [19]: binds
B2: 136.1(TPP-2194) (antibody, mouse IgG2a, kappa, V domains shown)
VH: EVKLEESGGGLVQPGGSMKLSCVASGFTFNNYWMSWVRQSPEKGLEWLAEIRLKSDNYATHYAESVKGKFTISRDDSKSRLYLQMNNLRAENTGIYYCTGGFADYFDYWGQGTTLTVSS
VL: DIVLTQSPASLTVSLGQRATISCRASQSVSTSSYSYMQWYQQRPGQPPKLLIKYATNLDSGVPARFSGSGSGTDFTLNIHPVEEEDAATYYCQHSWEIPYTFGGGTKLEIKR
notes: Murine IgG2a; variable domains from WO2009/020933 with constant region added

Kd [1]: 0.5 nM
koff [1]: 0.00122 s⁻¹
kon [1]: 2.31e+06 M⁻¹ s⁻¹
binding result [12]: binds
binding result [13]: binds
binding result [14]: binds
binding result [15]: binds
binding result [16]: binds
binding result [20]: binds
binding result [17]: binds
binding result [18]: binds
binding result [19]: binds
B3: P3G5(TPP-2195) (antibody, mouse IgG2a, kappa, V domains shown)
VH: QVQLQQSGPEVVRPGVSVKISCKGSGYTFTDYGIHWVKQSHAKSLEWIGVISTYNGYTNYNQKFKGKATMTVDKSSSTAYMELARLTSEDSAIYYCARAYYGNLYYAMDYWGQGTSVTVSS
VL: DIVLTQSPASLAVSLGQRATISCRANKSVSTSSYSYMHWYQQKPGQPPKLLIKYASNLESGVPARFSGSGSGTDFILNIHPVEEEDAATYYCQHSRELPFTFGSGTKLEIKR
notes: Murine IgG2a; variable domains from WO2009/140177 with constant region added

GeoMean of Fluorescence minus GeoMean with the secondary antibody only [21]: 229
Fold induction of Caspase 3/7, 786-O cells, 100 ug/ml [9]: 1.81 fold
Fold induction of Caspase 3/7, HT-29 cells, 100 ug/ml [9]: 2.44 fold
Fold induction of Caspase 3/7, NCI-H322 cells, 100 ug/ml [9]: 1.49 fold
Fold induction of Caspase 3/7, WiDr cells, 100 ug/ml [9]: 1.53 fold
IL-8 release from A375 cells at 100 ug/ml, % of the activation by 300 ng/ml TWEAK ligand [11]: 134%
Kd [1]: 27.6 nM
koff [1]: 0.11 s⁻¹
kon [1]: 4.2e+06 M⁻¹ s⁻¹
Kd [2]: 22.7 nM
Kd [3]: 4.7 nM
Kd [4]: 21.1 nM
Kd [5]: 15.4 nM
Kd [6]: 25 nM
Kd [7]: 20.4 nM
GeoMean of Fluorescence minus GeoMean with the secondary antibody only [22]: 17500
GeoMean of Fluorescence minus GeoMean with the secondary antibody only [23]: 98
GeoMean of Fluorescence minus GeoMean with the secondary antibody only [24]: 634
% binding normalized by wt binding signal [8]: < 5%
GeoMean of Fluorescence minus GeoMean with the secondary antibody only [25]: 1630
% Inhibition of proliferation, 786-O cells, 96h, 100 ug/ml [26]: 75%
% Inhibition of proliferation, A253 cells, 72h, 100 ug/ml [26]: > 100%
% Inhibition of proliferation, HT-29 cells, 24h, 100 ug/ml [26]: 97%
% Inhibition of proliferation, WiDr cells, 96h, 100 ug/ml [26]: 55%
GeoMean of Fluorescence minus GeoMean with the secondary antibody only [27]: 1190
B4: TPP-1538 (antibody, human IgG1, kappa)
heavy: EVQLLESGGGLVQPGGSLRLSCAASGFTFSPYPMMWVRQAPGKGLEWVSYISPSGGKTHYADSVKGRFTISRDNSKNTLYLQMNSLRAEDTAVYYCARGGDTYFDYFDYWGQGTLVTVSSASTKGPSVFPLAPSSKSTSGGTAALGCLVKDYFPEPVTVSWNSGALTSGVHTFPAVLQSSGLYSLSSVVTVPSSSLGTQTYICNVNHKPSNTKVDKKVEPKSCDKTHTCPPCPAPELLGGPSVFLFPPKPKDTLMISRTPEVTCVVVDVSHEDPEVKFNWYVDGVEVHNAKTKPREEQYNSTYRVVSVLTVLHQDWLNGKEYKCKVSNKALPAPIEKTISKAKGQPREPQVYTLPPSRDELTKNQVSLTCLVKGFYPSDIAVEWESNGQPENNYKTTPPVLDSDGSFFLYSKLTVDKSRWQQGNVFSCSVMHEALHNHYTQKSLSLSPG
light: AQDIQMTQSPATLSASVGDRVTITCRASQSISSYLNWYQQKPGKAPKLLIYAASSLQSGVPSRFSGSGSGTDFTLTISSLQPEDFATYYCQQSYSSPGITFGPGTKVEIKRTVAAPSVFIFPPSDEQLKSGTASVVCLLNNFYPREAKVQWKVDNALQSGNSQESVTEQDSKDSTYSLSSTLTLSKADYEKHKLYACEVTHQGLSSPVTKSFNRGEC
notes: Human IgG1
